A short description of series [1]: Hydrophobic interaction chromatography (HIC). In kind it is physicochemical. To be noted: full IgG; for Retention time: hydrophobicity by HIC. The method, then: Antibodies were purified from cleared cell culture supernatants using Protein A chromatography (Protein A resin slurry, 4.5 mL, Bogen, Cat #18-0010-02). Briefly, supernatants were prepared for affinity chromatography and loaded onto the columns and allowed to flow completely through the resin. The columns were washed with binding buffer containing 0.15M NaCl and 0.2M PB, PH7.0. Antibody was eluted with elution buffer containing 0.15M NaCl, 0.1M Glycine and 0.2M PB, PH 3.0. Fractions were collected and neutralized by the addition of 1/10 volume of 1M Tris, PH9.0. The fractions were dialyzed for 2 hours against 1×PBS. Purified antibody was quantified by absorbance at A280. Samples from each step of the protein A chromatography were applied onto 12% SDS-PAGE gels for reduced and non-reduced electrophoresis. The hydrophobicity was assessed with hydrophobic interaction chromatography (HIC) on a TSK gel Butyl-NPR, 4.6×100 mm with Butyl-NPR (Tosoh corporation) using a Waters HPLC 2695 system.

A further series deals with 786-O cells. In words: Internalization by FACS immune-fluorescence staining, 786-O. It counts as cell-based, human. To be noted: based on the cell binding affinity. The method, then: (§1) Briefly, 2×10^5 cells were harvested from a tissue culture flask by treatment with 0.25% Trypsin/EDTA and then incubated with 10 μg/ml of the lead antibodies or control antibodies in FACS buffer (1×PBS with 0.1% BSA) for 30 mins at 4° C. The cells were washed at 4° C. to remove unbound antibodies and kept on ice or shifted to 37° C. At the set time points (0 h, 4 h, 24 h), cells were incubated with PE-conjugated anti human Fc (Abcam, Ab98596) for 30 mins at 4° C. and then analyzed by flow cytometry. The internalization ratio was calculated by subtracting the 37° C. MFI from the 4° C. MFI, and then compared with 4° C. MFI.
(§2) Four cell lines ([…]), Caki-1, Raji, MCF-7) were utilized in the internalization assay. Target (CD70) copy numbers were determined via the QIFIKIT (DAKO, K0078). Briefly, cells were labeled with a primary mouse monoclonal antibody against CD70. Cells, Set-up beads, Calibration beads (from the kit) were then labeled in parallel with a fluorescein-conjugated anti-mouse secondary antibody. The fluorescence is correlated with the number of bound primary antibody molecules on the cells and on the beads. Samples were subsequently analyzed on the flow cytometer and copy number determined based on the calibration curve (Table 11). For internalization assay, 3×10^5 cells were incubated at 4° C. for 30 min with 10 µg/ml 2E7 in FACS buffer (1×PBS containing 0.1% BSA). Cells were washed at 4° C. to remove unbound material and kept on ice or shifted to 37° C. for different lengths of time. At progressive timepoints ([…], 0.5, 1, 2, 3, 4 hr) cells were stained with PE-conjugated anti-human Fc for 30 min at 4° C. and analyzed by flow cytometry. Internalization rate were calculated by subtracting the mean fluorescence intensity (MFI) of cell surface-bound antibody at 37° C. at each time point from the MFI of cell surface-bound antibody at 4° C. at time 0, then divided by the MFI of the cell surface-bound antibody at 4° C. at time 0.
On the technique in general: A flow cytometer gives signals particle by particle.

Series [2] relates to cynomolgus CD70 recombinant protein. In words: Antibody binding ELISA, cynomolgus CD70. Particulars: full IgG, FIG. 3. The method, then: The binding specificity of the CD70 antibodies was tested by ELISA according to a standard protocol. Briefly, 96-well micro-plates were coated with 2 μg/ml of human or cynomolgus CD70 recombinant protein in PBS at 100 μl per well and incubated overnight at 4° C. The plates were washed twice with TBS+0.5% Tween20. 200 μL of blocking buffer (2% BSA in PBS) was added to each well, and the plates were incubated at 37° C. for 2 hours. The plates were washed using the wash buffer mentioned above. Serially diluted antibodies were added to the ELISA plates using 100 μl per well, and the plates were incubated for 1 hour at room temperature. Then plates were washed 3 times. HRP conjugated anti-human Fc antibody solution (Sigma, I18885-2ML, diluted with blocking buffer) was added to the plates using 100 μl per well. The plates were incubated at room temperature for 1 hour and then washed 3 times. Then the TMB solution was added to plates using 100 μl per well and the plates were placed at RT for 5-15 mins. Then the stop solution (2M H2SO4) was added using 50 μl per well. The absorbance was measured at A450 and A630.

The test system of series [3] is 786-O, Caki-1, U251 and DBTRG-05MG cells. In words: Antibody binding by flow cytometry, statements across all four tumor cell lines. The arrangement: species or system human. To be noted: four cell lines. As to the method: The lead antibodies were tested for binding to renal carcinoma cells and glioblastoma cells expressing CD70 on the cell surface by flow cytometry. Cell lines 786-O (ATCC® CRL-1932™, provided by COBIOER), Caki-1 (ATCC® HTB-46™, provided by COBIOER), U251 and DBTRG-05MG (ATCC® CRL-2020™, provided by COBIOER) were each tested for antibody binding. 786-O cells were cultured with RPMI 1640 medium (Gibco, Cat #11875093) containing of 10% FBS (Gibco, Cat #10099141) while Caki-1 cells were cultured with McCoy's 5a Modified medium (Gibco, Cat #16600082) containing 10% FBS. U251 cells were cultured with MEM medium containing of 10% FBS and 1% NEAA+1 mM sodium pyruvate. DBTRG-05MG cells were cultured with DMEM medium (Gibco, Cat #C11995500BT) containing of 10% FBS. Each of the lead antibodies and the controls were incubated for 30 mins with the different cell lines (3×10^5 cells per well) in 0.2 ml FACS buffer (1×PBS with 0.1% BSA) at 4° C. Then, the cells were pelleted, washed, and incubated at 4° C. for 30 mins with 100 μl of 1:200 diluted PE-conjugated anti human Fc (Abcam, Ab98596) in FACS buffer. The cells were pelleted again, washed with PBS, resuspended in FACS buffer and analyzed by flow cytometer (Beckman, CytoFLEX).

For a further series, the system named is Caki-1 cells. In words: Internalization by FACS immune-fluorescence staining, Caki-1. In kind it is cell-based, human. Particulars: Caki-1, based on the cell binding affinity. The method, then: as §1, §2
In another series the target is T1, CD70 ECD (Homo sapiens, UniProt P32970).
T1 sequence (P32970 39-193 limits assumed): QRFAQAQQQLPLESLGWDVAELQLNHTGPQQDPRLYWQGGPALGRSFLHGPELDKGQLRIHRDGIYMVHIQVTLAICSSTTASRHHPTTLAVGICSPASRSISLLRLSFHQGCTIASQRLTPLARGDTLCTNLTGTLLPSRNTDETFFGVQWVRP
In words: Biacore affinity measurement on immobilized CD70 ECD. In kind it is binding. To be noted: 25° C., CD70 immobilized. As to the method:
The immobilization of antigen CD70 ECD was performed at 25° C. with HBS-EP as the running buffer. Sensor chip surface of flow cells 1, 4 were activated by freshly mixed 50 mmol/L N-Hydroxy succinimide (NHS) and 200 mmol/L 1-ethyl-3-(3-dimethylaminopropyl) carbodiimide hydrochloride (EDC) for 420s (10 μL/min). Afterwards, CD70 antigen diluted in 10 mmol/L NaAC (pH 4.5) was injected into flow cell 4 to achieve conjugation of the appropriate Response Unit, while flow cell 1 was set as a blank. After the amine coupling reaction, the remaining active coupling sites on chip surface were blocked by 420s injection of 1 mol/L ethanolamine hydrochloride.
The assay was performed at 25° C. and the running buffer was HBS-EP. Diluted antibodies were injected over the surface of flow cells 1 and 4 during the association phase, followed by injecting running buffer as the dissociation phase. All the data were processed using Biacore T200 Evaluation software version 3.1. Flow cell 1 and a blank injection of buffer in each cycle were used as a double reference for Response Units subtraction. Kinetic data of the interaction between the antibodies and CD70 antigen were obtained through affinity measurement.

Positions count from the first letter of the chain named.

B1: 1H8: anti-CD70 antibody clone, VH SEQ 5 and VL SEQ 6; scFv and full human IgG1/kappa (antibody, V domains shown)
VH: QVQLQESGPGLVKPSETLSLTCTVSGGSVSSDYYYWSWIRQPPGKGLEWLGYIYYSGSTNYNPSLKSRVTISVDTSKNQFSLKLRSVTTADTAVYYCARGDGDFMGVCFDYWGQGTLVTVSS
VL: EIVLTQSPATLSLSPGERATLSCRASQSVSSYLAWYQQKPGQAPRLLIFDASNRATGIPARFSGSGSGTDFTLTISSLEPEDFAVYYCQQRSNWPLTFGGGTKVEIK
B1: the “hydrophobicity compared with the parent antibody 69A7” value in series [1] (HIC) was “slightly more hydrophobic than the parent antibody 69A7”. Moreover, the “Retention time” value in series [1] came to 10.24 min. Besides, the “absolute amount of antibody internalized into cell vs parent antibody 69A7” value (from here on “absolute amount … vs parent antibody 69A7”) in the series on 786-O cells is listed as “higher absolute amount of antibody internalized into cell than the parent antibody 69A7”. Moreover, the “cross binding activity to the cyno-antigen” value in series [2] is recorded as “better cross binding activity to the cyno-antigen than antibody 69A7”. The “binding ability to the cell lines compared with antibody 69A7” value in series [3] is reported as “slightly higher binding ability to the cell lines than that of antibody 69A7”. In the series with Caki-1 cells, the “absolute amount … vs parent antibody 69A7” value is “higher absolute amount of antibody internalized into cell than the parent antibody 69A7”. Moreover, in the series with CD70 ECD, the “Rmax (RU)” value worked out at 38.81 RU, the “ka” value stood at 25600 M⁻¹ s⁻¹ and the “kd” value is 0.00112 s⁻¹.

B2: 2D2: anti-CD70 antibody clone, VH SEQ 9 and VL SEQ 10; scFv and full human IgG1/kappa (antibody, V domains shown)
VH: B1 VH with F104Y, M105G, V107N
VL: B1 VL with S92L, N93K, W94F
modifications: left off: another chain or arm of the molecule; large carriers; small tags and cut ends
notes: scFv and full human IgG1/kappa
On to B2, for which, in series [1], the “Retention time” value turned out to be 8.81 min. For the same molecule, in the series with 786-O cells, the “absolute amount … vs parent antibody 69A7” value is “higher absolute amount of antibody internalized into cell than the parent antibody 69A7”. Besides, the “cross binding activity to the cyno-antigen” value in series [2] is “better cross binding activity to the cyno-antigen than antibody 69A7”. Also, in series [3], the “binding ability to the cell lines compared with antibody 69A7” value is “slightly higher binding ability to the cell lines than that of antibody 69A7”. In the series on Caki-1 cells, the “absolute amount … vs parent antibody 69A7” value was “higher absolute amount of antibody internalized into cell than the parent antibody 69A7”. In the series with CD70 ECD, the “Rmax (RU)” value amounted to 38.83 RU, the “ka” value was 11700 M⁻¹ s⁻¹ and the “kd” value was 0.00105 s⁻¹.
